Laboratory results published in US20190144558A1 (MAGENTA THERAPEUTICS, published 2019).

B1: Antibody 58 (antibody, human IgG1, kappa, V domains shown)
VH: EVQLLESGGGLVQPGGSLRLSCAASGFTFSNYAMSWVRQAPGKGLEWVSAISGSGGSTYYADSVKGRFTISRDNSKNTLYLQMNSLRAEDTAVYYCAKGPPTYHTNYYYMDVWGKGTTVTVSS
VL: DIQMTQSPSSVSASVGDRVTITCRASQGISSWLAWYQQKPGKAPKLLIYAASSLQSGVPSRFSGSGSGTDFTLTISSLQPEDFATYYCQQTNSFPYTFGGGTKVEIKR
notes: also called Ab58; HC-58/LC-58
B2: Antibody 61 (antibody, human IgG1, kappa, V domains shown)
VH: EVQLLESGGGLVQPGGSLRLSCAASGFTFSSYVMIWVRQAPGKGLEWVSSISGDSVTTYYADSVKGRFTISRDNSKNTLYLQMNSLRAEDTAVYYCAKGPPTYHTNYYYMDVWGKGTTVTVSS
VL: DIQMTQSPSSVSASVGDRVTITCRASQGISSWLAWYQQKPGKAPKLLIYAASSLQSGVPSRFSGSGSGTDFTLTISSLQPEDFATYYCQQTNSFPYTFGGGTKVEIKR
notes: also called Ab61; HC-61/LC-61
B3: Antibody 56 (antibody, human IgG1, kappa, V domains shown)
VH: QVQLVQSGAEVKKPGSSVKVSCKASGGTFSLYAISWVRQAPGQGLEWMGGIIPAFGTANYAQKFQGRVTITADESTSTAYMELSSLRSEDTAVYYCARGGLDTDEFDLWGRGTLVTVSS
VL: DIQMTQSPSSLSASVGDRVTITCRASQSINSYLNWYQQKPGKAPKLLIYAASSLQSGVPSRFSGSGSGTDFTLTISSLQPEDFATYYCQQGVSDITFGGGTKVEIKR
notes: also called Ab56; HC-56/LC-56
B4: Antibody 55 (antibody, human IgG1, kappa, V domains shown)
VH: QVQLVQSGAEVKKPGSSVKVSCKASGGTFRIYAISWVRQAPGQGLEWMGGIIPDFGVANYAQKFQGRVTITADESTSTAYMELSSLRSEDTAVYYCARGGLDTDEFDLWGRGTLVTVSS
VL: DIQMTQSPSSLSASVGDRVTITCRASQSINSYLNWYQQKPGKAPKLLIYAASSLQSGVPSRFSGSGSGTDFTLTISSLQPEDFATYYCQQGVSDITFGGGTKVEIKR
notes: also called Ab55; HC-55/LC-55
B5: Antibody 54 (antibody, human IgG1, kappa, V domains shown)
VH: QVQLVQSGAEVKKPGSSVKVSCKASGGTFSSYAISWVRQAPGQGLEWMGGIIPIFGTANYAQKFQGRVTITADESTSTAYMELSSLRSEDTAVYYCARGGLDTDEFDLWGRGTLVTVSS
VL: DIQMTQSPSSLSASVGDRVTITCRASQSINSYLNWYQQKPGKAPKLLIYAASSLQSGVPSRFSGSGSGTDFTLTISSLQPEDFATYYCQQGVSDITFGGGTKVEIKR
notes: also called Ab54; HC-54/LC-54
B6: Antibody 57 (antibody, human IgG1, kappa, V domains shown)
VH: QVQLVQSGAEVKKPGSSVKVSCKASGGTFSLYAISWVRQAPGQGLEWMGGIIPHFGLANYAQKFQGRVTITADESTSTAYMELSSLRSEDTAVYYCARGGLDTDEFDLWGRGTLVTVSS
VL: DIQMTQSPSSLSASVGDRVTITCRASQSINSYLNWYQQKPGKAPKLLIYAASSLQSGVPSRFSGSGSGTDFTLTISSLQPEDFATYYCQQGVSDITFGGGTKVEIKR
notes: also called Ab57; HC-57/LC-57
B7: Antibody 67 (antibody, human IgG1, kappa, V domains shown)
VH: EVQLVESGGGLVQPGGSLRLSCAASGFTFSDADMDWVRQAPGKGLEWVGRTRNKAGSYTTEYAASVKGRFTISRDDSKNSLYLQMNSLKTEDTAVYYCAREPKYWIDFDLWGRGTLVTVSS
VL: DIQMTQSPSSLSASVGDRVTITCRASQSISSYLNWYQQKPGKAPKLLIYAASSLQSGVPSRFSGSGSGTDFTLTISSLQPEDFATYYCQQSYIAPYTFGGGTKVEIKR
notes: also called Ab67; HC-67/LC-67
B8: Antibody 68 (antibody, human IgG1, kappa, V domains shown)
VH: EVQLVESGGGLVQPGRSLRLSCTASGFTFSDHDMNWVRQAPGKGLEWVGRTRNAAGSYTTEYAASVKGRFTISRDDSKNSLYLQMNSLKTEDTAVYYCAREPKYWIDFDLWGRGTLVTVSS
VL: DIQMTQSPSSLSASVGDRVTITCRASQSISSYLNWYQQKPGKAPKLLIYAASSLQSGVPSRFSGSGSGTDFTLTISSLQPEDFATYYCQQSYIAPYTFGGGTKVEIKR
notes: also called Ab68; HC-68/LC-68
B9: Antibody 66 (antibody, human IgG1, kappa, V domains shown)
VH: EVQLVESGGGLVQPGGSLRLSCAASGFTFSDHYMDWVRQAPGKGLEWVGRTRNKASSYTTEYAASVKGRFTISRDDSKNSLYLQMNSLKTEDTAVYYCAREPKYWIDFDLWGRGTLVTVSS
VL: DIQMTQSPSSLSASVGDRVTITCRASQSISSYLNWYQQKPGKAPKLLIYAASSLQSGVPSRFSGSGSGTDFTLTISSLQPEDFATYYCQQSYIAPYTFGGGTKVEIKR
notes: also called Ab66; HC-66/LC-66
B10: Antibody 69 (antibody, human IgG1, kappa, V domains shown)
VH: EVQLVESGGGLVQPGGSLRLSCAASGFTFVDHDMDWVRQAPGKGLEWVGRTRNKLGSYTTEYAASVKGRFTISRDDSKNSLYLQMNSLKTEDTAVYYCAREPKYWIDFDLWGRGTLVTVSS
VL: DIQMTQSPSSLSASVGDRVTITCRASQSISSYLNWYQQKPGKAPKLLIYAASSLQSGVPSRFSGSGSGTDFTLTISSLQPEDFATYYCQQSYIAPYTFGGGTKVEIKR
notes: also called Ab69; HC-69/LC-69

Each binder was assayed against T1, rhesus CD117 ectodomain (rhesus, UniProt F6V858 26-524) (assay: BLI (Octet Red96), IgG on anti-human Fc sensors, rhesus CD117 ectodomain at 33.3 and 11 nM, 1:1 fit).
T1 construct: extracellular domain
Experimental: Antibody binding studies were performed at 25 degrees celsius in 1×PBS supplemented with 0.1% w/v bovine serum albumin with a Pall ForteBio Octet Red96 using biolayer interferometry (BLI).
B1 gave a Kd of 30.3 nM, a koff of 0.00855 s⁻¹ and a kon of 282000 M⁻¹ s⁻¹.
B2 showed a Kd of 20.5 nM, a koff of 0.00472 s⁻¹ and a kon of 230000 M⁻¹ s⁻¹.
B3 showed a Kd of 0.28 nM, a koff of 8.57e-05 s⁻¹ and a kon of 306000 M⁻¹ s⁻¹.
In the case of B4, the Kd is reported as 0.284 nM, the koff is reported as 8.96e-05 s⁻¹ and the kon is reported as 315000 M⁻¹ s⁻¹.
B5 gave a Kd of 2.6 nM, a koff of 0.000793 s⁻¹ and a kon of 304000 M⁻¹ s⁻¹.
B6 was tested, and the Kd was 0.288 nM, the koff was 8.57e-05 s⁻¹ and the kon was 298000 M⁻¹ s⁻¹.
With B7 the Kd was 0.376 nM, the koff was 8.57e-05 s⁻¹ and the kon was 228000 M⁻¹ s⁻¹.
Binder B8 has a Kd of 0.374 nM, a koff of 8.98e-05 s⁻¹ and a kon of 240000 M⁻¹ s⁻¹.
Work on B9 yielded a Kd of 66 nM, a koff of 0.0258 s⁻¹ and a kon of 391000 M⁻¹ s⁻¹.
B10 showed a Kd of 0.528 nM, a koff of 0.000126 s⁻¹ and a kon of 240000 M⁻¹ s⁻¹.
